# Test results taken from patent US20040136998A1 (published 2004).
# B1: deimmunized J415 antibody, heavy chain version 2 with light chain version 5 (antibody, V domains shown)
# VH: EVKLEESGGGLVQPGGSMKISCVASGFTFSNYWMNWVRQTPEKGLEWVALIRSQSNNFATHYAESVKGRVIISRDDSKSSVYLQMNSLRAEDTAVYYCTRRWNNFWGQGTTVTVSS
# VL: NIVMTQFPKSMSASAGERMTLTCKASENVGTYVSWYQQKPTQSPKMLIYGASNRFTGVPDRFSGSGSGTDFILTISSVQAEDLVDYYCGQSYTFPYTFGGGTKLEMK
# Molecular target: T1, prostate specific membrane antigen (PSMA) (human, UniProt Q04609 1-750)
# T1 construct: whole, on cells; Target in all assays is PSMA on LNCaP (LNCap) cells or LNCaP membrane preparation; also called human PSMA
# T1 sequence (Q04609 whole entry): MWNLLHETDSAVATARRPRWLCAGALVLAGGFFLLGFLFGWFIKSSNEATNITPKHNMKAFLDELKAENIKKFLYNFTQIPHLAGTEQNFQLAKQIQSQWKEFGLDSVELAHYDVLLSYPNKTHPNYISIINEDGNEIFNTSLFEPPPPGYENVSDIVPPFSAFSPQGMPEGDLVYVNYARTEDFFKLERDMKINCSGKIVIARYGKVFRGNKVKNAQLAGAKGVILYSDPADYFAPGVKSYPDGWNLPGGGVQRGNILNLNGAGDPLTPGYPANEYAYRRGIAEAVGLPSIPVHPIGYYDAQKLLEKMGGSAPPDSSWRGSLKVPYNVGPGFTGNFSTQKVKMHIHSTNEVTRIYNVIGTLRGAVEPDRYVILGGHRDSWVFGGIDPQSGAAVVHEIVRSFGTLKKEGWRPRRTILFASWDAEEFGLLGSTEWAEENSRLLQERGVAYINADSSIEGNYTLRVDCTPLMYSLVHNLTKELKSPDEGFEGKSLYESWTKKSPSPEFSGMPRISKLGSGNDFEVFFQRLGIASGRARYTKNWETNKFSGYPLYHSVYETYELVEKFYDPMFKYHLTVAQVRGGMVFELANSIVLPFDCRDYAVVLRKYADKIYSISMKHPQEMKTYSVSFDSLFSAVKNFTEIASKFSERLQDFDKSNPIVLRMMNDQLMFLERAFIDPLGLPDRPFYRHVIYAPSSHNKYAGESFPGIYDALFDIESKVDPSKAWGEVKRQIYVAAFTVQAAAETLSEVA
# Experiment: ELISA on plates coated with LNCap membrane preparation; purified antibody; reference: J415 chimeric antibody
binder,measurement,value
B1,fold less binding than the chimeric antibody,2 fold
